This data set can be described thus: yeast display, Sf9 membrane polyspecificity reagent, FACS + sequencing; frameworks hold sequencing errors. The procedure, abridged:
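Sorting gates, low and high (top ~1%), were placed on anti-HA fluorescence to track expression and on streptavidin fluorescence to track reagent binding. A clone's polyreactivity label is taken from the gate it came out of. The reagent was 10% biotinylated, detergent-solubilized Sf9 membrane, applied for 1 hour at 4 °C to galactose-induced yeast display cells.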
As to “QVQLVESGGGLVQAGGSLRLSCAASGRIFYYNTMGWYREAPGTERELVAAISSGAGRTYYADSVKGRFTISRDNAMNTVYLQMNSLKPEDTAVYYCAARFYVIKWYDYWGQGTQVTVSS”, the “polyreactivity (PSR sort gate)” value is given as “high polyreactivity”.
As to “QVQLVESGGGLVQAGGSLRLSCAASGRIFYYNTMGWYRQAPGKERELVAAISSTASTTYADSVKGRFTISRDNAKNTDYIQMNSLKPEDTAVYYCAADHRYHWANPRGYYYWGQGTQVTVSS”, the “polyreactivity (PSR sort gate)” value is reported as “high polyreactivity”.
Next, “QVQLVESGGGLVQAGGSLRLSCAASGRIFYYNTMGWYRQSPGKERELVAAISSTASTTYADSVKGRFTISRENAKNTVYLKMNILKPEDTAVYYCAAAYSVRGRTYDSWGQGTQVTVSS”: “high polyreactivity”.
On to “QVQLVESGGGLVQAGGSLRLSCAASGRIFYYSAMGWSRQAPGIERELVAAITRRGGSTYYADSVKGRVTISRDNAKNTVFLQMNSLKPEDTEVYYSAKPDRTCWLDGDYWGQGSQVTVSS”, for which the “polyreactivity (PSR sort gate)” value is given as “low polyreactivity”.
Take “QVQLVESGGGLVQAGGSLRLSCAASGRIFYYYAMGWSRQAPGKERELVAGISYSGGRTYYADSVKGRFTISRDNAKNTVYLQMNSLKPEDTAVYYCAAAYRGANYGYGFDYWGQGTQVTVSS”: the “polyreactivity (PSR sort gate)” value is “high polyreactivity”.
Under “QVQLVESGGGLVQAGGSLRLSCAASGRIFYYYAMGWYRPAPGKERELVAAITSGGRTYYADSVKGRFTISRDNAKNTVYLQMNSLKPEDTAVYYCAAERTYTYLGPGYEYWGQGTQVTVSS” stands “low polyreactivity”.
Under “QVQLVESGGGLVQAGGSLRLSCAASGRIFYYYAMGWYRQAPGKERELFADITWSGGSTYYADSVKGRFTISRDNAKNTVYLQMNSLKPEDTAVNYCNAVYFNYLLEYDYWGQGTQVTVSS” stands “high polyreactivity”; under “QVQLVESGGGLVQAGGSLRLSCAASGRIFYYYAMGWYRQAPGKERELVAAITRRGGSTYYADSVKGRFTISRDNAKNTVYLQLNSLKPEDTAVYYCAKPDRTGWLDGDYWGQGTQVTVSS”, “low polyreactivity”.
Take “QVQLVESGGGLVQAGGSLRLSCAASGRIFYYYAMGWYRQAPGKERELVAASSTYYADSVKGRFTISRDNAKNTVYLQMNSQKPEDTAVYYCAAVTFSYDGYDYWGPGTQVTVSS”: the “polyreactivity (PSR sort gate)” value was “low polyreactivity”.
Next, “QVQLVESGGGLVQAGGSLRLSCAASGRIFYYYDMGWYRQAPGKERELVAGINDDSSTYYADSVKGRFTISRDNAKNTVYLQMNSLKPEDTAVYYCNAGPSWYPSWYYYWGQGTQVTVSS”: “low polyreactivity”; “QVQLVESGGGLVQAGGSLRLSCAASGRIFYYYPMGWYRQAPGKERELVADITRGGGTYYADSVKGRFTISRDNAKNTVYLQMNSLKPEDTAVYYCAKGGPPESHHPYRYRFDYWGQGTQVTVSS”: “low polyreactivity”.
Under “QVQLVESGGGLVQAGGSLRLSCAASGRIFYYYTMGWYRQAPGKERELVADISRGGSTYYADSVKGRFTISRDNAKNTVYLQMNSLKPEDTAVYYCNAVTRIQTSYPSNWGMMDYWGQGTQVTVSS” stands “low polyreactivity”; under “QVQLVESGGGLVQAGGSLRLSCAASGRIFYYYTMGWYRQAPGKERELVAGISRSGDRTYYADSVKGRFTISRDNGKNTVYLQMNSLKPEDTAVYYFAALYGYVHRKAFYYWGQGTQVTVSS”, “high polyreactivity”; under “QVQLVESGGGLVQAGGSLRLSCAASGRIGKYAMGWYRQAPGKERELVATISSTGTTNYADSVKGRFTISRDNAKNTVYLKMNSLKPEDTAVYYCAARWEYVGYRRRYYRFDYWGQGTQVTVSS”, “high polyreactivity”.
Under “QVQLVESGGGLVQAGGSLRLSCAASGRIICFYPMGWYRQAPGKEREFVAAIRWSGGTTYYADSVKGRFTISRDNAKNNVYLQMNSLKPEDTAVYYCAAGRAVGHSLYSRGYDYWGQGTQVTVSS” stands “low polyreactivity”; under “QVQLVESGGGLVQAGGSLRLSCAASGRIIDRNAMGWYRQAPGKERELVAAISSSGSTNYADSVKGRFTISRDNAKNTVYLQLNSLKPEDTAVYYCAARWRSVLASGTRPVSFDYWGQGTQVTVSS”, “low polyreactivity”.

(Values after the nanobody polyreactivity screen of Harvey et al. (2022).)
